The source of these data is PMC6478803.

In the series the target is FleQ (Pseudomonas syringae pv. tomato DC3000) (UniProt Q884Y2). The experiment in a line: EMSA. The following applies: STAD: 25 mM Tris-acetate pH 8.0, 8 mM Mg-acetate, 10 mM KCl, 3.5% PEG-8000, 1 mM DTT, 10 ug/ml poly(dI-dC), 200 ug/ml BSA; 20 nM probe (Results: 1 nM); 30 min ….

For “GTTCGATTAATCCAGTGAGCCTTTCGGTGCAGTTGGTCTGCGCCAACGCCACTGTCGGCGCGCCGCTGAATCTGGGTGACCTCAAGGCCGGTGAACGCTATAGCATCTTGCTGGTGCCGTCCGCCACAGGCCCGCGCCTGTTGTCGGCCACGGACACACTGTCCAACTGATCGGGTTCTGTCGTCGTTATGGTATTCGCCTCGCTTGAGTTTCTGATGGTGTTCCTGCCGGCTTTTTTGCTGGCCTATGCCGCAAGCCCGGCGGCGTGGCGCAACGTCGTTCTGTTGATCGGCAGTTGG (double strand) [wssH (wssH1)]”, the binding result is recorded as “no binding”.
